Values of other authors in publication PMC4072998.

Legend:
Asp14 = Asp14 (UniProt position 14, GAILADVIGTT); test: kinetics; settings: pre-equilibrium; free protein binding substrate
Glu14 [1] = target: T1, Glu14 (UniProt position 14, GAILAEVIGTT); test: other
Glu14 [2] = target: T1, Glu14; test: kinetics; settings: pre-equilibrium; free protein binding substrate

Substance | pKa (Asp14) | pKa (Glu14 [1]; equilibrium, substrate-induced deprotonation) | pKa (Glu14 [1]; substrate-free protein competing for H+ versus TPP+) | pKa (Glu14 [2])
EmrE E14D mutant (Escherichia coli; E14D) | 5.8 | – | – | –
EmrE (small multidrug resistance transporter) (Escherichia coli) | – | 8.3-8.5 | 7-8 | ~7.3
